Laboratory results reported in US20160272683A1 (Novo Nordisk, published 2016).
* marks the point of attachment. C20 diacid = O=C(O)CCCCCCCCCCCCCCCCCCC(=O)*; C18 diacid = O=C(O)CCCCCCCCCCCCCCCCC(=O)*

T1: human calcitonin receptor (human, UniProt P30988 25-474)
T1 construct: whole, on cells; also called hCT-R; hCTR
T1 sequence (looked up): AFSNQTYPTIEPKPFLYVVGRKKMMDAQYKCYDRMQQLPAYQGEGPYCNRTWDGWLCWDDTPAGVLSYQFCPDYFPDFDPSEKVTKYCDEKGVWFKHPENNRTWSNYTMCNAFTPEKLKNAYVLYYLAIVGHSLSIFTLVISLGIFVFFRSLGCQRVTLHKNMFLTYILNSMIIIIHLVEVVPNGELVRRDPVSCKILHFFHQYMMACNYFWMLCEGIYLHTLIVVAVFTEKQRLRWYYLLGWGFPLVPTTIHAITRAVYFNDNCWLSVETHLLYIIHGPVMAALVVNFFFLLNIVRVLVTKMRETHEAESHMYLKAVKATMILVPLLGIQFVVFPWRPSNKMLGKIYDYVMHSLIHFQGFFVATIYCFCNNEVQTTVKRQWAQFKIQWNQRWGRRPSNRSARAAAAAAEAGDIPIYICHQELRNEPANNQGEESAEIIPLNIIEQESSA


Target: T1, human calcitonin receptor
Experiment: whole-cell competition vs 125I-human calcitonin (Assay VIIa)
Experimental: The binding assay was performed using a BHK tk'ts 13 cell line was stably transfected with the human calcitonin receptor, and a CRE-responsive luciferase reporter gene.
The day before the assay the cells were Seeded into Poly-D-Lysin coated 384W Opaque White, BD BioCoat plates (10000 cells/well) and Incubated overnight at 37° C., 5% CO2, 95% humidity. […] The morning after, the plates were washed three times in HBSS (4° C.), and lyzed in Lysis buffer (0.1 M NaOH), 1% SDS. Scintillation cocktail (MicroScint40®) was added and the plates were shaken at 500 rpm for a short period. The plate was incubated at room temperature in the dark for 1 hour and Read on a TopCounter™ (Packard). The IC₅₀ was calculated using (one site binding competition analysis) GraphPad Prism5 as a measure of receptor affinity.

IC50 [nM] | Binder
0.315 | {C18 diacid}-EASELSTAALGRLSAELHELATLPRTETGSGSP-NH2 (also called Ex. #21) [[N-terminal(C18 diacid), 30S, 31G]mimylin]
0.188 | {C20 diacid}-EASELSTAALGRLSAELHELATLPRTETGSGSP-NH2 (also called Ex. #22) [[N-terminal(C20 diacid), 30S, 31G]mimylin]
1.17 | {C18 diacid}-EASELSTAALGRLSAELHELATLPRTETGPEHP-NH2 (SMILES CC(C)C[C@H](NC(=O)[C@H](C)NC(=O)[C@H](C)NC(=O)[C@@H](NC(=O)[C@H](CO)NC(=O)[C@H](CC(C)C)NC(=O)[C@H](CCC(=O)O)NC(=O)[C@H](CO)NC(=O)[C@H](C)NC(=O)[C@H](CCC(=O)O)NC(=O)CCCCCCCCCCCCCCCCC(=O)O)[C@@H](C)O)C(=O)NCC(=O)N[C@@H](CCCNC(=N)N)C(=O)N[C@@H](CC(C)C)C(=O)N[C@@H](CO)C(=O)N[C@@H](C)C(=O)N[C@@H](CCC(=O)O)C(=O)N[C@@H](CC(C)C)C(=O)N[C@@H](Cc1c[nH]cn1)C(=O)N[C@@H](CCC(=O)O)C(=O)N[C@@H](CC(C)C)C(=O)N[C@@H](C)C(=O)N[C@H](C(=O)N[C@@H](CC(C)C)C(=O)N1CCC[C@H]1C(=O)N[C@@H](CCCNC(=N)N)C(=O)N[C@H](C(=O)N[C@@H](CCC(=O)O)C(=O)N[C@H](C(=O)NCC(=O)N1CCC[C@H]1C(=O)N[C@@H](CCC(=O)O)C(=O)N[C@@H](Cc1c[nH]cn1)C(=O)N1CCC[C@H]1C(N)=O)[C@@H](C)O)[C@@H](C)O)[C@@H](C)O, also called Ex. #18) [[N-terminal(C18 diacid), 32H]mimylin]
0.419 | {C18 diacid}-EASELSTAALGRLSAELHEIATLPRTETGPESP-NH2 (SMILES CC[C@H](C)[C@H](NC(=O)[C@H](CCC(=O)O)NC(=O)[C@H](Cc1c[nH]cn1)NC(=O)[C@H](CC(C)C)NC(=O)[C@H](CCC(=O)O)NC(=O)[C@H](C)NC(=O)[C@H](CO)NC(=O)[C@H](CC(C)C)NC(=O)[C@H](CCCNC(=N)N)NC(=O)CNC(=O)[C@H](CC(C)C)NC(=O)[C@H](C)NC(=O)[C@H](C)NC(=O)[C@@H](NC(=O)[C@H](CO)NC(=O)[C@H](CC(C)C)NC(=O)[C@H](CCC(=O)O)NC(=O)[C@H](CO)NC(=O)[C@H](C)NC(=O)[C@H](CCC(=O)O)NC(=O)CCCCCCCCCCCCCCCCC(=O)O)[C@@H](C)O)C(=O)N[C@@H](C)C(=O)N[C@H](C(=O)N[C@@H](CC(C)C)C(=O)N1CCC[C@H]1C(=O)N[C@@H](CCCNC(=N)N)C(=O)N[C@H](C(=O)N[C@@H](CCC(=O)O)C(=O)N[C@H](C(=O)NCC(=O)N1CCC[C@H]1C(=O)N[C@@H](CCC(=O)O)C(=O)N[C@@H](CO)C(=O)N1CCC[C@H]1C(N)=O)[C@@H](C)O)[C@@H](C)O)[C@@H](C)O, also called Ex. #12) [[N-terminal(C18 diacid), 20I]mimylin]

More lines, now with the values behind:

Binder | IC50 [nM]
{C18 diacid}-EASELSTAVLGRLSAELHELATLPPTETGPESP-NH2 (SMILES CC(C)C[C@H](NC(=O)[C@H](CCC(=O)O)NC(=O)[C@H](Cc1c[nH]cn1)NC(=O)[C@H](CC(C)C)NC(=O)[C@H](CCC(=O)O)NC(=O)[C@H](C)NC(=O)[C@H](CO)NC(=O)[C@H](CC(C)C)NC(=O)[C@H](CCCNC(=N)N)NC(=O)CNC(=O)[C@H](CC(C)C)NC(=O)[C@@H](NC(=O)[C@H](C)NC(=O)[C@@H](NC(=O)[C@H](CO)NC(=O)[C@H](CC(C)C)NC(=O)[C@H](CCC(=O)O)NC(=O)[C@H](CO)NC(=O)[C@H](C)NC(=O)[C@H](CCC(=O)O)NC(=O)CCCCCCCCCCCCCCCCC(=O)O)[C@@H](C)O)C(C)C)C(=O)N[C@@H](C)C(=O)N[C@H](C(=O)N[C@@H](CC(C)C)C(=O)N1CCC[C@H]1C(=O)N1CCC[C@H]1C(=O)N[C@H](C(=O)N[C@@H](CCC(=O)O)C(=O)N[C@H](C(=O)NCC(=O)N1CCC[C@H]1C(=O)N[C@@H](CCC(=O)O)C(=O)N[C@@H](CO)C(=O)N1CCC[C@H]1C(N)=O)[C@@H](C)O)[C@@H](C)O)[C@@H](C)O, also called Ex. #31) [[N-terminal(C18 diacid), 9V, 25P]mimylin] | 0.506
{C18 diacid}-EASELSTAALGRLSAEIHELATLPRTETGPESP-NH2 (SMILES CC[C@H](C)[C@H](NC(=O)[C@H](CCC(=O)O)NC(=O)[C@H](C)NC(=O)[C@H](CO)NC(=O)[C@H](CC(C)C)NC(=O)[C@H](CCCNC(=N)N)NC(=O)CNC(=O)[C@H](CC(C)C)NC(=O)[C@H](C)NC(=O)[C@H](C)NC(=O)[C@@H](NC(=O)[C@H](CO)NC(=O)[C@H](CC(C)C)NC(=O)[C@H](CCC(=O)O)NC(=O)[C@H](CO)NC(=O)[C@H](C)NC(=O)[C@H](CCC(=O)O)NC(=O)CCCCCCCCCCCCCCCCC(=O)O)[C@@H](C)O)C(=O)N[C@@H](Cc1c[nH]cn1)C(=O)N[C@@H](CCC(=O)O)C(=O)N[C@@H](CC(C)C)C(=O)N[C@@H](C)C(=O)N[C@H](C(=O)N[C@@H](CC(C)C)C(=O)N1CCC[C@H]1C(=O)N[C@@H](CCCNC(=N)N)C(=O)N[C@H](C(=O)N[C@@H](CCC(=O)O)C(=O)N[C@H](C(=O)NCC(=O)N1CCC[C@H]1C(=O)N[C@@H](CCC(=O)O)C(=O)N[C@@H](CO)C(=O)N1CCC[C@H]1C(N)=O)[C@@H](C)O)[C@@H](C)O)[C@@H](C)O, also called Ex. #11) [[N-terminal(C18 diacid), 17I]mimylin] | 1.37
{C18 diacid}-EASELSTAVLGRLSAELHELATLPRTETGPESP-NH2 (SMILES CC(C)C[C@H](NC(=O)[C@H](CCC(=O)O)NC(=O)[C@H](Cc1c[nH]cn1)NC(=O)[C@H](CC(C)C)NC(=O)[C@H](CCC(=O)O)NC(=O)[C@H](C)NC(=O)[C@H](CO)NC(=O)[C@H](CC(C)C)NC(=O)[C@H](CCCNC(=N)N)NC(=O)CNC(=O)[C@H](CC(C)C)NC(=O)[C@@H](NC(=O)[C@H](C)NC(=O)[C@@H](NC(=O)[C@H](CO)NC(=O)[C@H](CC(C)C)NC(=O)[C@H](CCC(=O)O)NC(=O)[C@H](CO)NC(=O)[C@H](C)NC(=O)[C@H](CCC(=O)O)NC(=O)CCCCCCCCCCCCCCCCC(=O)O)[C@@H](C)O)C(C)C)C(=O)N[C@@H](C)C(=O)N[C@H](C(=O)N[C@@H](CC(C)C)C(=O)N1CCC[C@H]1C(=O)N[C@@H](CCCNC(=N)N)C(=O)N[C@H](C(=O)N[C@@H](CCC(=O)O)C(=O)N[C@H](C(=O)NCC(=O)N1CCC[C@H]1C(=O)N[C@@H](CCC(=O)O)C(=O)N[C@@H](CO)C(=O)N1CCC[C@H]1C(N)=O)[C@@H](C)O)[C@@H](C)O)[C@@H](C)O, also called Ex. #9) [[N-terminal(C18 diacid), 9V]mimylin] | 0.736
{C18 diacid}-EASELSTAALGRLSAELAELATLPRTETGPESP-NH2 (SMILES CC(C)C[C@H](NC(=O)[C@H](C)NC(=O)[C@H](C)NC(=O)[C@@H](NC(=O)[C@H](CO)NC(=O)[C@H](CC(C)C)NC(=O)[C@H](CCC(=O)O)NC(=O)[C@H](CO)NC(=O)[C@H](C)NC(=O)[C@H](CCC(=O)O)NC(=O)CCCCCCCCCCCCCCCCC(=O)O)[C@@H](C)O)C(=O)NCC(=O)N[C@@H](CCCNC(=N)N)C(=O)N[C@@H](CC(C)C)C(=O)N[C@@H](CO)C(=O)N[C@@H](C)C(=O)N[C@@H](CCC(=O)O)C(=O)N[C@@H](CC(C)C)C(=O)N[C@@H](C)C(=O)N[C@@H](CCC(=O)O)C(=O)N[C@@H](CC(C)C)C(=O)N[C@@H](C)C(=O)N[C@H](C(=O)N[C@@H](CC(C)C)C(=O)N1CCC[C@H]1C(=O)N[C@@H](CCCNC(=N)N)C(=O)N[C@H](C(=O)N[C@@H](CCC(=O)O)C(=O)N[C@H](C(=O)NCC(=O)N1CCC[C@H]1C(=O)N[C@@H](CCC(=O)O)C(=O)N[C@@H](CO)C(=O)N1CCC[C@H]1C(N)=O)[C@@H](C)O)[C@@H](C)O)[C@@H](C)O, also called Ex. #13) [[N-terminal(C18 diacid), 18A]mimylin] | 0.279
{C18 diacid}-EASELSTAVLGRLSAELHELATLPRTEPGPESP-NH2 (SMILES CC(C)C[C@H](NC(=O)[C@H](CCC(=O)O)NC(=O)[C@H](Cc1c[nH]cn1)NC(=O)[C@H](CC(C)C)NC(=O)[C@H](CCC(=O)O)NC(=O)[C@H](C)NC(=O)[C@H](CO)NC(=O)[C@H](CC(C)C)NC(=O)[C@H](CCCNC(=N)N)NC(=O)CNC(=O)[C@H](CC(C)C)NC(=O)[C@@H](NC(=O)[C@H](C)NC(=O)[C@@H](NC(=O)[C@H](CO)NC(=O)[C@H](CC(C)C)NC(=O)[C@H](CCC(=O)O)NC(=O)[C@H](CO)NC(=O)[C@H](C)NC(=O)[C@H](CCC(=O)O)NC(=O)CCCCCCCCCCCCCCCCC(=O)O)[C@@H](C)O)C(C)C)C(=O)N[C@@H](C)C(=O)N[C@H](C(=O)N[C@@H](CC(C)C)C(=O)N1CCC[C@H]1C(=O)N[C@@H](CCCNC(=N)N)C(=O)N[C@H](C(=O)N[C@@H](CCC(=O)O)C(=O)N1CCC[C@H]1C(=O)NCC(=O)N1CCC[C@H]1C(=O)N[C@@H](CCC(=O)O)C(=O)N[C@@H](CO)C(=O)N1CCC[C@H]1C(N)=O)[C@@H](C)O)[C@@H](C)O, also called Ex. #32) [[N-terminal(C18 diacid), 9V, 28P]mimylin] | 3.35
